Measurements reported in the supplement of paper PMC10724198.
± gives the standard deviation of the averaged measurements.

Tested on: Saccharomyces cerevisiae
Assay: protein stability index of tFT-peptide fusion (C-terminal peptide) (PSI (0-1 scale)); higher = more stable (slower turnover)
Settings: temperature: 30 C
Procedure: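 MPS profiling in S. cerevisiae of the yeast C-terminome library: the last 12 aa of each annotated ORF are fused to the C-terminus of a sfGFP-mCherry timer, after a GGGS linker. Cells are FACS-sorted into 8 mCherry/sfGFP bins and deep-sequenced. PSI runs from 0 (unstable) to 1 (stable); wild type and das1Δ backgrounds, two technical replicates each.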

[1] = genetic background: das1 deletion

Sequence | protein stability index [1] | protein stability index (genetic background: wild type)
RLKLDYSLIFPQ [MEI5 C-terminal 12 aa] | 0.7 ± 0.01 | 0.72 ± 0.038
VKSLQVKKSHLK [CDC12 C-terminal 12 aa] | 0.704 ± 0.0088 | 0.742 ± 0.13
QLENKLEILKQK [SPC19 C-terminal 12 aa] | 0.699 ± 0.052 | 0.7259 ± 0.0072
MPSATTKNPYAQ [CAF120 C-terminal 12 aa] | 0.709 ± 0.042 | 0.686 ± 0.034
FKLHNETRCRNR [VPS71 C-terminal 12 aa] | 0.68 ± 0.017 | 0.677 ± 0.007
QGKVRLWKLNHY [UTP18 C-terminal 12 aa] | 0.7 ± 0.021 | 0.616 ± 0.025
KAFFISKTLPCI [YLR112W C-terminal 12 aa] | 0.7141 ± 0.0031 | 0.766 ± 0.07
FSIRSISKFIFT [YOR325W C-terminal 12 aa] | 0.649 ± 0.014 | 0.665 ± 0.051
PEMIEELDIDDE [GPD2 C-terminal 12 aa] | 0.707 ± 0.018 | 0.658 ± 0.015
MVSSLRNANHIF [BCS1 C-terminal 12 aa] | 0.712 ± 0.028 | 0.681 ± 0.025
NLKLKFNENIME [DIT2 C-terminal 12 aa] | 0.695 ± 0.033 | 0.639 ± 0.0087
DRDGCVNAVLLV [NSA2 C-terminal 12 aa] | 0.701 ± 0.012 | 0.6768 ± 0.0054
DKHEQPQIESPK [CFD1 C-terminal 12 aa] | 0.7 ± 0.026 | 0.684 ± 0.021
SDIFSFLDETYE [PHO92 C-terminal 12 aa] | 0.7281 ± 0.007 | 0.718 ± 0.02
DDGDSDSWDTNW [CEX1 C-terminal 12 aa] | 0.701 ± 0.024 | 0.702 ± 0.014
EYHQEFLHKHVR [CWC15 C-terminal 12 aa] | 0.726 ± 0.035 | 0.662 ± 0.015
ESLQKNIKIETK [MUM3 C-terminal 12 aa] | 0.6981 ± 0.005 | 0.671 ± 0.051
NVDDAYSRVFGI [MPS2 C-terminal 12 aa] | 0.719 ± 0.011 | 0.673 ± 0.025
FDTLIVHHFSSE [KHA1 C-terminal 12 aa] | 0.733 ± 0.01 | 0.682 ± 0.021
KAMILTSYRYLE [CLP1 C-terminal 12 aa] | 0.675 ± 0.035 | 0.677 ± 0.056
PSLRTRSSYTEE [FLR1 C-terminal 12 aa] | 0.6845 ± 0.0013 | 0.717 ± 0.043

Sequence | protein stability index [1] | protein stability index (genetic background: wild type)
ILTLVETLSEQE [VMA22 C-terminal 12 aa] | 0.704 ± 0.009 | 0.7049 ± 0.0056
QQLQSPTAPPTE [COX14 C-terminal 12 aa] | 0.727 ± 0.008 | 0.694 ± 0.038
NYESVEVPAANN [YML018C C-terminal 12 aa] | 0.682 ± 0.0077 | 0.7097 ± 0.0019
NGSDNVTPGGRL [STE50 C-terminal 12 aa] | 0.708 ± 0.014 | 0.685 ± 0.022
TNQASPHHIFRG [ORA1 C-terminal 12 aa] | 0.702 ± 0.016 | 0.752 ± 0.038
VGFCGLYYYFRK [YPR195C C-terminal 12 aa] | 0.647 ± 0.018 | 0.648 ± 0.015
GCSLQISYARRD [GBP2 C-terminal 12 aa] | 0.706 ± 0.018 | 0.6525 ± 0.0037
HRSFFKDIIPEL [KIN82 C-terminal 12 aa] | 0.723 ± 0.013 | 0.693 ± 0.022
ERKPLDFLRTAK [MRPL39 C-terminal 12 aa] | 0.6743 ± 0.0021 | 0.659 ± 0.0088
VVVCRLHFSLPV [YKL111C C-terminal 12 aa] | 0.562 ± 0.0059 | 0.57 ± 0.012
ALSADGIYTIAN [PAU5 C-terminal 12 aa] | 0.71 ± 0.0096 | 0.6966 ± 0.0031
EANLKVLNGLEI [YPR148C C-terminal 12 aa] | 0.687 ± 0.024 | 0.667 ± 0.011
FLILVFVMKKNH [YDR018C C-terminal 12 aa] | 0.287 ± 0.0071 | 0.269 ± 0.017
EAQLSCNYEPLP [COS10 C-terminal 12 aa] | 0.707 ± 0.021 | 0.673 ± 0.0098
TVHQLRDRGFDI [ENV9 C-terminal 12 aa] | 0.73 ± 0.0077 | 0.717 ± 0.014
WNLQTLAADDAF [RPB11 C-terminal 12 aa] | 0.765 ± 0.03 | 0.729 ± 0.049
FEVMKFVNGLKV [RFX1 C-terminal 12 aa] | 0.5484 ± 0.0045 | 0.5872 ± 0.0047
YVRFYRGKLNNP [YOL036W C-terminal 12 aa] | 0.704 ± 0.022 | 0.7 ± 0.024
RLGDVLRVCCPS [YFL065C C-terminal 12 aa] | 0.627 ± 0.0072 | 0.668 ± 0.0092
DIFEDSSDEEQS [SPL2 C-terminal 12 aa] | 0.7179 ± 0.00076 | 0.727 ± 0.084
SAYMYTKRRFGF [MNR2 C-terminal 12 aa] | 0.712 ± 0.021 | 0.647 ± 0.017

Sequence | protein stability index [1] | protein stability index (genetic background: wild type)
DLIKEHSKDIQV [HCH1 C-terminal 12 aa] | 0.6872 ± 0.0016 | 0.691 ± 0.012
KNEELSKKHFSK [ROK1 C-terminal 12 aa] | 0.718 ± 0.013 | 0.74 ± 0.12
LSKRRTRLINFN [PXL1 C-terminal 12 aa] | 0.727 ± 0.013 | 0.538 ± 0.047
EQLEEEFVRQEH [OSW7 C-terminal 12 aa] | 0.7319 ± 0.00083 | 0.7301 ± 0.0026
TVIALLVGWIYY [SCS22 C-terminal 12 aa] | 0.241 ± 0.01 | 0.255 ± 0.0075
GRPSMVPIAELK [MLH3 C-terminal 12 aa] | 0.672 ± 0.019 | 0.714 ± 0.062
QGKAFYDRIKDL [RFS1 C-terminal 12 aa] | 0.683 ± 0.013 | 0.255 ± 0.025
EQSEQPEQHQDK [RPN10 C-terminal 12 aa] | 0.697 ± 0.018 | 0.666 ± 0.01
NGPVNNNAHLVA [FAT3 C-terminal 12 aa] | 0.689 ± 0.0098 | 0.709 ± 0.049
FVEGGDGKYVLN [YPL113C C-terminal 12 aa] | 0.688 ± 0.016 | 0.676 ± 0.014
ESYRDDSIEAED [NCR1 C-terminal 12 aa] | 0.6933 ± 0.001 | 0.7157 ± 0.0012
FPEKNIVNLKSA [CHA1 C-terminal 12 aa] | 0.6971 ± 0.0067 | 0.1495 ± 0.0011
QKRSCFFLANIH [YKL183C-A C-terminal 12 aa] | 0.661 ± 0.01 | 0.608 ± 0.027
IHCRSQNCLSLS [VBA4 C-terminal 12 aa] | 0.687 ± 0.024 | 0.681 ± 0.016
YKNKVGVGIPFI [STE14 C-terminal 12 aa] | 0.728 ± 0.019 | 0.7065 ± 0.0057
KGLQTVVVEEDA [RPL31A C-terminal 12 aa] | 0.6888 ± 0.0012 | 0.683 ± 0.0082
LTTSVLCCVVFT [CNE1 C-terminal 12 aa] | 0.348 ± 0.0076 | 0.364 ± 0.0028
SNYNNRTTDMPL [PSP2 C-terminal 12 aa] | 0.6781 ± 0.0018 | 0.703 ± 0.1
HDRSESDSDLDI [PLP1 C-terminal 12 aa] | 0.671 ± 0.015 | 0.677 ± 0.015
VKFVYRQRIALV [YLL037W C-terminal 12 aa] | 0.577 ± 0.0095 | 0.195 ± 0.0078
TYMLNGPAGLLM [YNL165W C-terminal 12 aa] | 0.6979 ± 0.0034 | 0.684 ± 0.024

Sequence | protein stability index [1] | protein stability index (genetic background: wild type)
LPPEGKPKGKDD [TAZ1 C-terminal 12 aa] | 0.701 ± 0.018 | 0.661 ± 0.018
SIIFLLLSYLLF [SAG1 C-terminal 12 aa] | 0.392 ± 0.042 | 0.381 ± 0.0067
NKHDLHLRPETY [YAR010C C-terminal 12 aa] | 0.658 ± 0.018 | 0.678 ± 0.021
KYILAWLRKVLL [YFL012W-A C-terminal 12 aa] | 0.651 ± 0.031 | 0.456 ± 0.013
HCQPQEILVLRQ [PEX10 C-terminal 12 aa] | 0.7094 ± 0.0062 | 0.7 ± 0.013
LLSVHMYSSSLL [YNL019C C-terminal 12 aa] | 0.687 ± 0.011 | 0.671 ± 0.018
EKKDTEGDVDMD [SSE1 C-terminal 12 aa] | 0.678 ± 0.0095 | 0.666 ± 0.011
AYEFDGDKVIVG [RIP1 C-terminal 12 aa] | 0.704 ± 0.018 | 0.6846 ± 0.0025
INGIIDPSELSD [ALO1 C-terminal 12 aa] | 0.69 ± 0.029 | 0.68 ± 0.0073
ENASQLPHPSQK [ZIM17 C-terminal 12 aa] | 0.698 ± 0.024 | 0.691 ± 0.021
LYKPSVWDLFEY [FZF1 C-terminal 12 aa] | 0.716 ± 0.016 | 0.6818 ± 0.0023
PCYSDAPPRFMC [YER152W-A C-terminal 12 aa] | 0.701 ± 0.034 | 0.287 ± 0.0035
EPFGPKMSTVQV [YHB1 C-terminal 12 aa] | 0.6732 ± 0.0032 | 0.663 ± 0.0085
ADDDIFVNGFLR [YHL002C-A C-terminal 12 aa] | 0.719 ± 0.02 | 0.7 ± 0.023
SVHLDQLLDGKE [CSI2 C-terminal 12 aa] | 0.714 ± 0.0086 | 0.669 ± 0.013
VSNNLIIDEETF [BIM1 C-terminal 12 aa] | 0.7174 ± 0.0056 | 0.7214 ± 0.0042
TESENDALDDLL [TLG2 C-terminal 12 aa] | 0.714 ± 0.013 | 0.707 ± 0.0078
RQNTLSLWRYRK [RPL15A C-terminal 12 aa] | 0.682 ± 0.0084 | 0.682 ± 0.039
VLVCFQTFILLQ [YDL032W C-terminal 12 aa] | 0.152 ± 0.012 | 0.162 ± 0.0082
